In the DeepSol protein solubility set:

assay: soluble on expression in E. coli; label from the status in PepcDB or PDB records

Sequence	soluble on expression in E. coli
GSSGSSGYQPTYNPTLPYKRPIPGGLSVGMSVYIQGMAKENMRRFHVNFAVGQDDGADVAFHFNPRFDGWDKVVFNTMQSGQWGKEEKKKSMPFQKGKHFELVFMVMPEHYKVVVNGNSFYEYGHRLPVQMVTHLQVDGDLELQSINFLGGQPAAAPY	soluble
GSSRGIPPKIEALPSDISIDEGKVLTVACAFTGEPTPEVTWSCGGRKIHSQEQGRFHIENTDDLTTLIIMDVQKQDGGLYTLSLGNEFGSDSATVNIHIRSI	soluble
GSTVPYTITVNGTSQNILSNLTFNKNQNISYKDLEGKVKSVLESNRGITDVDLRLSKQAKYTVNFKNGTKKVIDLKSGIYTANLINSSDIKSININID	soluble
GSYNKPSETVIPESVDGLQENLDVVVSLAERHYYNCDFKMCYKLTSVVMEKDPFHASCLPVHIGTLVELNKANELFYLSHKLVDLYPSNPVSWFAVGCYYLMVGHKNEHARRYLSKATTLEKTYGPAWIAYGHSFAVESEHDQAMAAYFTAAQLMKGCHLPMLYIGLEYGLTNNSKLAERFFSQALSIAPEDPFVMHEVGVVAFQNGEWKTAEKWFLDALEKIKAIGNEVTVDKWEPLLNNLGHVCRKLKKYAEALDYHRQALVLIPQNASTYSAIGYIHSLMGNFENAVDYFHTALGLRRDDTFSVTMLGHCIEMYIGDSEAYIGADIK	soluble
GSYTLSEKDLKELDSIRDSFQCMNEPLDNDQQASTLAKKEHNPTDILNVMDITMRRLVKMAKRLGAFNEISEAGKFSLLKGGMIEMLTIRGVTVFNADKGVWQTPVDGHSQISFNMFDKLRPDIKDTQKKGFLHFFNLLHSDVRKNDLAIDIIVLMVLFDSKREGLVSQQDKETVEKLHRNYESLLHRYLYSIHKEEAEQRFASIPKALVALRKVAENAVTLFLGAGNTTEAASLPKEFFATNY	soluble
GVEFMAGYYDTKNQALNPVSRTERPYPIVTVQNYVEKAIKEGRIQMNVEIEAFTTDIRMIVIGNVFEWCLRNGEADFEGNMVRSLGKYLDSTLD	not soluble
GVEITEGVTVTAKGNTEGNTADLAIDGDLSTYWESSNDYKWIEVDLGGIYELSKIEIFNKDEAVYKYNIYASEDGENFNKIAYKNNDNVSDSNGNMHTIDNVRAGKIRIDVVQNSNSDRVNIAEINVFGKNTGESLPEVKKIATSNFSETPWATEYEKFNSDSAYANEKTLNEIKNLVGRVIGREFKDKFIFEIRDQLNGNDVFEVSDSGDGKVLIKGNNGVSLASGFNYYLKNYCNVSYNPIMGSNLKMPETMPSVGERVVIDTPYEHRYALNFCTYSYTMSFWDWDQYEEFLDWCAMNGVNLVLDIIGQEEVLRRTLNEFGYSDEEVKEFISGPAYFAWFYMQNMTGFGGPLPNDWFEQRAELGRKMHDRMQSFGINPVLQGYSGMVPRDFKEKNQEAQTISQGGWCGFDRPDMLKTYVNEGEADYFQKVADVFYEKQKEVFGDVTNFYGVDPFHEGGNTGDLDNGKIYEIIQNKMIEHDNDAVWVIQNWQGNPSNNKLEGLTKKDQAMVLDLFSEVSPDWNRLEERDLPWIWNMLHNFGGRMGMDAAPEKLATEIPKALANSEHMVGIGITPEAINTNPLAYELLFDMAWTRDQINFRTWTEDYIERRYGKTNKEILEAWNIILDTAYKKRNDYYQGAAESIINARPGFGIKSASTWGHSKIVYDKSEFEKAIEIFAKNYDEFKDSDAFLYDFADILKQLLANSAQEYYEVMCNAYNNGNGEKFKFVSGKFLELIKLQERVLSTRPEFLIGNWIEDARTMLKDSDDWTKDLFEFNARALVTTWGSRNNADGGGLKDYSNRQWSGLTEDYYYARWEKWINGLQAELDGGAKAPNIDWFKMEYDWVNKKSDTDKLYPTEASNENLGELAKIAMESYSVTNMDKILGENES	soluble
GVSKEEYKDVETAKKEKEQLGELMEPALGYVVKVPVSSFENKKVDISDIEVITNGNLDDVPYKANSSKYNYPDIKTKDSSLQYVRSGYVIDGEHSGSNEKGYVYYKGNSPAKELPVNQLLTYTGSWDFTSNANLNNEEGRPNYLNDDYYTKFIGKRVGLVSGDAKPAKHKYTSQFEVDFATKKMTGKLSDKEKTIYTVNADIRGNRFTGAATASDKNKGKGESYNFFSADSQSLEGGFYGPKAEEMAGKFVANDKSLFAVFSAKHNGSNVDTVRIIDASKIDLTNFSISELNNFGDASVLIIDGKKIKLAGSGFTNKHTIEINGKTMVAVACCSNLEYMKFGQLWQQAEGGKPENNSLFLQGERTATDKMPKGGNYKYIGTWDAQVSKENNWVATADDDRKAGYRTEFDVDFGNKNLSGKLFDKNGVNPVFTVDPKIDGNGFTGKAKTSDAGFALDSGSSRYENVKFNDVAVSGGFYGPTAAELGGQFHHKSENGSVGAVFGAKQQVKK	soluble
